# Measured values: patent US20200317808A1 (AbbVie / Abbott, published 2020)
# Numbering of substitutions follows the chain as printed. In names and notes the source's numbering stands.
# B1: Humanized 12A11.2b with M99L in CDR-H3 (antibody, V domains shown)
# VH: EIQLVQSGAEVKKPGSSVKVSCKASGYTFTHYGMNWVRQAPGQGLEWVGWVNTYTGEPTYADDFKGRLTFTLDTSTSTAYMELSSLRSEDTAVYYCTREGEGLGFGDWGQGTTVTVSS
# VL: DVVMTQSPLSLPVTPGEPASISCRSSQSIVHSHGDTYLEWYLQKPGQSPQLLIYKVSNRFSGVPDRFSGSGSGTDFTLKISRVEAEDVGVYYCFQGSHIPVTFGQGTKLEIK
# notes: It was detected with anti-human Fab and captured with anti-human IgG Fc; also called Hu12A11.2b4; humanized antibody 12A11.2b M99L
# B2: Humanized 12A11.2b with M99I in CDR-H3 (antibody, V domains shown)
# VH: B1 VH with L103I
# VL: B1 VL
# notes: also called Hu12A11.2b2; M99I variant
# B3: Humanized 12A11.2b with M99V in CDR-H3 (antibody, V domains shown)
# VH: B1 VH with L103V
# VL: B1 VL
# notes: also called Hu12A11.2b3; M99V variant
# B4: Humanized 12A11.2b with mouse CDRs (antibody, V domains shown)
# VH: B1 VH with L103M
# VL: B1 VL
# notes: also called Hu12A11.2b1; M99 parent antibody
# How the values were obtained:
# [1] = target: T1, cynomolgus PD-1 Fc fusion (cynomolgus monkey, UniProt B0LAJ3 25-170); assay: ELISA on plate bound cynomolgus PD-1 Fc fusion
# T1 construct: also called Cyno PD-1 (ELISA)
# T1 sequence (B0LAJ3 entry or part of it limits assumed): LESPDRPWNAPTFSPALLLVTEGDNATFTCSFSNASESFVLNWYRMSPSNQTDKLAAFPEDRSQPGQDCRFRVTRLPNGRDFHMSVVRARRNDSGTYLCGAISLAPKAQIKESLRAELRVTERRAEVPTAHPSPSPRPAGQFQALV
# [2] = target: T2, human PD-1 expressed on cells (human, UniProt Q15116 25-288); assay: flow cytometry on PD-1 expressing Jurkat cells
# T2 construct: also called cell surface PD-1; PD-1 in Jurkat cells
# T2 sequence (Q15116 25-288 limits assumed): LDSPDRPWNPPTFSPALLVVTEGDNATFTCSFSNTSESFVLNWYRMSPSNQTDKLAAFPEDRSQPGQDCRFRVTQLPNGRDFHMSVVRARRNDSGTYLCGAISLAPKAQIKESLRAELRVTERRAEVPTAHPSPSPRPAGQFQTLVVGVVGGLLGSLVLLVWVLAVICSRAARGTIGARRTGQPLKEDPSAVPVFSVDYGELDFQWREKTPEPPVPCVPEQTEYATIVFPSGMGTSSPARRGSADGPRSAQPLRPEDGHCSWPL
# [3] = target: T2, human PD-1 expressed on cells; assay: cell-based or functional assay
# [4] = target: T3, Recombinant extracellular domain of human PD-1 (residues 1-167) (human, UniProt Q15116 25-167); assay: SPR, Biacore T200, antibody captured by anti-human Fc, PD-1 ECD as analyte
# T3 construct: Bought from a commercial source; also called recombinant soluble PD-1 ECD; PD-1 ECD
# T3 sequence (Q15116 25-167): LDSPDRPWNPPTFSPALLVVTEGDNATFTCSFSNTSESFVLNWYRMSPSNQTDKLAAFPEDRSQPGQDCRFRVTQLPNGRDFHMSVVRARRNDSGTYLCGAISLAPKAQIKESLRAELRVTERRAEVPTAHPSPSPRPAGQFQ
# From the text: Unreacted moieties on the biosensor surface were blocked with ethanolamine.
# [5] = target: T2, human PD-1 expressed on cells; assay: flow cytometry on activated human CD4+ T cells
# Method: Cells were analyzed using Becton Dickinson FACSCanto flow cytometer. Data was analyzed using BD FACSDiva software (version 8.0.1).
# human PD-1 Fc fusion = target: T4, human PD-1 Fc fusion (human, UniProt Q15116 25-170); assay: ELISA on plate bound human PD-1 Fc fusion
# T4 construct: also called Hu PD-1 (ELISA); not shown: Fc part of the fusion
# T4 sequence (Q15116 25-170 limits assumed): as the sequence (B0LAJ3 entry or part of it limits assumed) above, with E2D, A10P, L19V, A35T, R75Q, A144T counted along it
# [6] = target: T2, human PD-1 expressed on cells; assay: flow cytometry on PD-1 expressing Jurkat cells; samples incubated 30 days at -80, 5, 25 or 40°C
# Method: (§1) PD-1 expressing Jurkat cells were harvested from flasks and resuspended to 2×10⁶ cells/mL in PBS containing 1% BSA. 100 μL of cells were added to a round bottom 96 well plate containing 100 μL of titrated test antibody or isotype control. Cells were incubated with antibodies at room temperature for 25 minutes and then washed twice with PBS containing 1% BSA. The cell pellet was resuspended in 100 μL of a 1:250 diluted secondary antibody goat anti-human Fab PE. Following 25 minutes incubation at RT, cells were washed twice with PBS containing 1% BSA and resuspended in 200 μL of 1% BSA. Cells were analyzed using Becton Dickinson FACSCanto flow cytometer. Data was analyzed using BD FACSDiva software (version 8.0.1).
# [7] = target: T2, human PD-1 expressed on cells; assay: flow cytometry on human PD-1 transfected Jurkat cells
# Method: as §1
# (§2) The antibody variants were screened for binding to human PD-1 transfected Jurkat cells and EC₅₀ values were determined (FIG. 3B).
# [8] = target: T2, human PD-1 expressed on cells; assay: flow cytometry on PD-1 expressing Jurkat cells; samples stored 30 days at the given temperature or oxidised with 1% hydrogen peroxide or 1% tert-butyl hydroperoxide
# Method: as §1, §2
molecule,measurement,setting,value
Nivolumab (antibody),EC50,[1],0.07 nM
B1,EC50,[2],0.045 nM
same,Jurkat NFAT EC50,[3],4.5 µg/mL
same,Kd,[4],2.1 nM
same,EC50,[5],0.18 nM
same,EC50,[1],0.102 nM
same,EC50,human PD-1 Fc fusion,0.197 nM
same,EC50 (read off the curve),[6],~0.01 µg/mL
B2,binding result,[7],binds
B3,binding result,[7],binds
B4,binding result,[8],binds
